Results from US20230357422A1 (published 2023).

Target: T1, 4-1BB antigen (human, UniProt Q07011 24-186, limits assumed)
T1 construct: also called human 4-1BB antigen; human 4-1BB protein
Assay: BLI (ForteBio), antibody on AHQ sensor, 100 nM 4-1BB antigen, 1:1 model
Procedure: ForteBio affinity determination was performed according to the existing method (Estep, P et al., Solution-based measurement of high-throughput antibody-antigen affinity and epitope classification, MAbs, 2013.5(2):p. 270-8). Briefly, the sensor was equilibrated offline for 30 min in the assay buffer, then the baseline was established by detection online for 60 s, and the purified antibody obtained as described above was loaded onto the AHQ sensor online. Then, the sensor was put into 100 nM 4-1BB antigen to act for 5 minutes, and the sensor was transferred to PBS and dissociated for 5 minutes. Analysis of kinetics was performed using a 1:1 binding model.

T1 sequence (Q07011 24-186 limits assumed): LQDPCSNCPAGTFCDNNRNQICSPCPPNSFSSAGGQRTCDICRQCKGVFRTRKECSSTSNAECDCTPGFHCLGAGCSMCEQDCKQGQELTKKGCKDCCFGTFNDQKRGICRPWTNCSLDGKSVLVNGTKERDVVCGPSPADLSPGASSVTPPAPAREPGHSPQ

B1: A-Na-16 (Fc fusion)
chain: QVQLVESGGGLVPPGESLRLSCAASGAIFRINTGAWYRQAPGKQRELVASLTTYGKTTYADFVKGRFTISRDDARNTVSLQMNSLKPEDTAIYYCHIGPEPRYGYWGQGTQVTVSSTHTCPPCPAPEAAGGPSVFLFPPKPKDTLMISRTPEVTCVVVDVSHEDPEVKFNWYVDGVEVHNAKTKPREEQYNSTYRVVSVLTVLHQDWLNGKEYKCKVSNKALPAPIEKTISKAKGQPREPQVYTLPPSREEMTKNQVSLTCLVKGFYPSDIAVEWESNGQPENNYKTTPPVLDSDGSFFLYSKLTVDKSRWQQGNVFSCSVMHEALHNHYTQKSLSLSPG
Q: With B1 as the binder, how does the Kd read?
A: 20.8 nM

B2: A-Na-19 (Fc fusion)
chain: QVQLVESGGGLVPPGESLRLSCAASGAIFRINTGAWYRQAPGKQRELVASLTTYGKTTYADFVKGRFTISRDDAKNTVYLQMNSLKPEDTAIYYCHIGPEPRYGYWGQGTQVTVSSTHTCPPCPAPEAAGGPSVFLFPPKPKDTLMISRTPEVTCVVVDVSHEDPEVKFNWYVDGVEVHNAKTKPREEQYNSTYRVVSVLTVLHQDWLNGKEYKCKVSNKALPAPIEKTISKAKGQPREPQVYTLPPSREEMTKNQVSLTCLVKGFYPSDIAVEWESNGQPENNYKTTPPVLDSDGSFFLYSKLTVDKSRWQQGNVFSCSVMHEALHNHYTQKSLSLSPG
Q: Which Kd does the source give for B2 here?
A: 15.1 nM

B3: A-Ye-04 (Fc fusion)
chain: QVQLQESGGGLVPPGESLRLSCAASGAIFRINTGAWYRQAPGKQRELVASLTTYGKTTYADFVKGRFTISRDDAKNTVSLQMNSLKPEDTAIYYCHIGPEPRYGYWGQGTQVTVSSTHTCPPCPAPEAAGGPSVFLFPPKPKDTLMISRTPEVTCVVVDVSHEDPEVKFNWYVDGVEVHNAKTKPREEQYNSTYRVVSVLTVLHQDWLNGKEYKCKVSNKALPAPIEKTISKAKGQPREPQVYTLPPSREEMTKNQVSLTCLVKGFYPSDIAVEWESNGQPENNYKTTPPVLDSDGSFFLYSKLTVDKSRWQQGNVFSCSVMHEALHNHYTQKSLSLSPG
Q: With B3 as the binder, how does the Kd read?
A: 222 nM

B4: A-Na-18 (Fc fusion)
chain: QVQLVESGGGLVPPGESLRLSCAASGAIFRINTGAWYRQAPGKQRELVASLTTYGKTTYADFVKGRFTISRDDAENTVSLQMNSLKPEDTAIYYCHIGPEPRYGYWGQGTQVTVSSTHTCPPCPAPEAAGGPSVFLFPPKPKDTLMISRTPEVTCVVVDVSHEDPEVKFNWYVDGVEVHNAKTKPREEQYNSTYRVVSVLTVLHQDWLNGKEYKCKVSNKALPAPIEKTISKAKGQPREPQVYTLPPSREEMTKNQVSLTCLVKGFYPSDIAVEWESNGQPENNYKTTPPVLDSDGSFFLYSKLTVDKSRWQQGNVFSCSVMHEALHNHYTQKSLSLSPG
Q: Which Kd does the source give for B4 here?
A: 17.5 nM

B5: A-Ye-13 (Fc fusion)
chain: EVQLQESGGGLVQAGGSLRLSCAASGFTFDDYAIGWFRQAPGKEREGVLCISSSGGSTYYADSVKGRFTISRDNAKNTVYLQMTNLKPEDTAVYLCGAPRDCSYYTGDDYWGQGTQVTVSSTHTCPPCPAPEAAGGPSVFLFPPKPKDTLMISRTPEVTCVVVDVSHEDPEVKFNWYVDGVEVHNAKTKPREEQYNSTYRVVSVLTVLHQDWLNGKEYKCKVSNKALPAPIEKTISKAKGQPREPQVYTLPPSREEMTKNQVSLTCLVKGFYPSDIAVEWESNGQPENNYKTTPPVLDSDGSFFLYSKLTVDKSRWQQGNVFSCSVMHEALHNHYTQKSLSLSPG
Q: Which Kd does the source give for B5 here?
A: 11.9 nM

B6: L-Yr-13&14-13 (Fc fusion)
chain: QVQLQESGGGLVQAGDSLRLSCAASGSTFSITAMGWYRQPPGKQRELVASIITGDGDTNYADSVKGRFTISRDNAKNTMYLQMNSLKPEDTAVYYCYARTGYGSSWLMGHEYDYWGQGTQVTVSSTHTCPPCPAPEAAGGPSVFLFPPKPKDTLMISRTPEVTCVVVDVSHEDPEVKFNWYVDGVEVHNAKTKPREEQYNSTYRVVSVLTVLHQDWLNGKEYKCKVSNKALPAPIEKTISKAKGQPREPQVYTLPPSREEMTKNQVSLTCLVKGFYPSDIAVEWESNGQPENNYKTTPPVLDSDGSFFLYSKLTVDKSRWQQGNVFSCSVMHEALHNHYTQKSLSLSPG
Q: Which Kd does the source give for B6 here?
A: 23.2 nM

B7: L-Yr-13&14-11 (Fc fusion)
chain: QVQLQESGGGLVQAGDSLRLSCAASGSTFSITAMGWYRQPPGKQRELVAAIIMSDGDTNYQDSVKGRFTISRDNAKNTMYLQMNSLKLEDTAVYYCYARTGYGSGRLMGHEYDYWGQGTQVTVSSTHTCPPCPAPEAAGGPSVFLFPPKPKDTLMISRTPEVTCVVVDVSHEDPEVKFNWYVDGVEVHNAKTKPREEQYNSTYRVVSVLTVLHQDWLNGKEYKCKVSNKALPAPIEKTISKAKGQPREPQVYTLPPSREEMTKNQVSLTCLVKGFYPSDIAVEWESNGQPENNYKTTPPVLDSDGSFFLYSKLTVDKSRWQQGNVFSCSVMHEALHNHYTQKSLSLSPG
Q: For B7, which Kd is on record?
A: 21.6 nM

B8: L-Yr-13&14-10 (Fc fusion)
chain: QVQLQESGGGLVQAGGSLRLSCAASGSTFSITAMGWYRQAPGQQRELVAAIASGDGATNYADFVKGRFTISRDNAKNTMFLQMNSLKPEDSAVYYCYARTGYGSSWLMGHEYDYWGQGTQVTVSSTHTCPPCPAPEAAGGPSVFLFPPKPKDTLMISRTPEVTCVVVDVSHEDPEVKFNWYVDGVEVHNAKTKPREEQYNSTYRVVSVLTVLHQDWLNGKEYKCKVSNKALPAPIEKTISKAKGQPREPQVYTLPPSREEMTKNQVSLTCLVKGFYPSDIAVEWESNGQPENNYKTTPPVLDSDGSFFLYSKLTVDKSRWQQGNVFSCSVMHEALHNHYTQKSLSLSPG
Q: Which Kd does the source give for B8 here?
A: 46 nM

B9: L-Yr-13&14-12 (Fc fusion)
chain: QVQLQESGGGLVQAGDSLRLSCAASGSTFSITAMGWYRQPPGKQRELVAAIIMSDGDTNYQDSVKGRFTISRDNAKNTMYLQMNSLKPEDTAVYYCYARTGYGSGWLEGHEYDYWGQGTQVTVSSTHTCPPCPAPEAAGGPSVFLFPPKPKDTLMISRTPEVTCVVVDVSHEDPEVKFNWYVDGVEVHNAKTKPREEQYNSTYRVVSVLTVLHQDWLNGKEYKCKVSNKALPAPIEKTISKAKGQPREPQVYTLPPSREEMTKNQVSLTCLVKGFYPSDIAVEWESNGQPENNYKTTPPVLDSDGSFFLYSKLTVDKSRWQQGNVFSCSVMHEALHNHYTQKSLSLSPG
Q: How did the Kd turn out when B9 was run?
A: 30.8 nM

B10: L-Yr-13&14-02 (Fc fusion)
chain: QVQLQESGGGLVQAGGSLRLSCAASGGTFSITAMGWYRQAPGQQRELVAAIASGDGATNYADFVKGRFTISRDNAKNTMFLQMNSLKPEDSAVYYCYARTGYGSSWPMGHEYDYWGQGTQVTVSSTHTCPPCPAPEAAGGPSVFLFPPKPKDTLMISRTPEVTCVVVDVSHEDPEVKFNWYVDGVEVHNAKTKPREEQYNSTYRVVSVLTVLHQDWLNGKEYKCKVSNKALPAPIEKTISKAKGQPREPQVYTLPPSREEMTKNQVSLTCLVKGFYPSDIAVEWESNGQPENNYKTTPPVLDSDGSFFLYSKLTVDKSRWQQGNVFSCSVMHEALHNHYTQKSLSLSPG
Q: With B10 as the binder, how does the Kd read?
A: 44.7 nM

B11: L-Yr-13&14-08 (Fc fusion)
chain: QVQLQESGGGLVQPGGSLRLSCAASGSTFSISAMGWYRQPPGKQRELVALIIMSDGDTNYQDSVKGRFTISRDNANNTMYLQMNSLKLEDTAVYYCYARTGYGSGRLMGHEYDYWGQGTQVTVSSTHTCPPCPAPEAAGGPSVFLFPPKPKDTLMISRTPEVTCVVVDVSHEDPEVKFNWYVDGVEVHNAKTKPREEQYNSTYRVVSVLTVLHQDWLNGKEYKCKVSNKALPAPIEKTISKAKGQPREPQVYTLPPSREEMTKNQVSLTCLVKGFYPSDIAVEWESNGQPENNYKTTPPVLDSDGSFFLYSKLTVDKSRWQQGNVFSCSVMHEALHNHYTQKSLSLSPG
Q: Which Kd does the source give for B11 here?
A: 20.5 nM

B12: L-Yr-13&14-09 (Fc fusion)
chain: QVQLQESGGGLVQAGGSLKLSCAASGSTFSISAMGWYRQAPGKQRELVAAIVIGDGDTNYADSVKGRFTISRDNAKNTMYLQMNSLKPEDTAVYYCYARTGYGSSWLMGHEYDYWGQGTQVTVSSTHTCPPCPAPEAAGGPSVFLFPPKPKDTLMISRTPEVTCVVVDVSHEDPEVKFNWYVDGVEVHNAKTKPREEQYNSTYRVVSVLTVLHQDWLNGKEYKCKVSNKALPAPIEKTISKAKGQPREPQVYTLPPSREEMTKNQVSLTCLVKGFYPSDIAVEWESNGQPENNYKTTPPVLDSDGSFFLYSKLTVDKSRWQQGNVFSCSVMHEALHNHYTQKSLSLSPG
Q: B12 was tested. Which Kd did it give?
A: 21 nM

B13: L-Yr-13&14-07 (Fc fusion)
chain: QVQLQESGGGLVQAGDSLRLSCAASGSTFGITAMGWYRQPPGKQRELVAAIIMSDGDTNYQDSVKGRFTISRDNAKNTMYLQMNSLKLEDTAVYYCYARTGYGSGRLMGHEYDYWGQGTQVTVSSTHTCPPCPAPEAAGGPSVFLFPPKPKDTLMISRTPEVTCVVVDVSHEDPEVKFNWYVDGVEVHNAKTKPREEQYNSTYRVVSVLTVLHQDWLNGKEYKCKVSNKALPAPIEKTISKAKGQPREPQVYTLPPSREEMTKNQVSLTCLVKGFYPSDIAVEWESNGQPENNYKTTPPVLDSDGSFFLYSKLTVDKSRWQQGNVFSCSVMHEALHNHYTQKSLSLSPG
Q: Which Kd does the source give for B13 here?
A: 14.3 nM

B14: A-Ye-03 (Fc fusion)
chain: QVQLQESGGGLVQAGGSLRLSCAASGFTLDYYAIGWFRQAPGKEREGVLCISSSGETTYYSDSVKGRFTISRDNAKNKVYLQMNSLKPEDTAVYYCGAELLGSGEGCYVWSRDGSYWGQGTQVTVSSTHTCPPCPAPEAAGGPSVFLFPPKPKDTLMISRTPEVTCVVVDVSHEDPEVKFNWYVDGVEVHNAKTKPREEQYNSTYRVVSVLTVLHQDWLNGKEYKCKVSNKALPAPIEKTISKAKGQPREPQVYTLPPSREEMTKNQVSLTCLVKGFYPSDIAVEWESNGQPENNYKTTPPVLDSDGSFFLYSKLTVDKSRWQQGNVFSCSVMHEALHNHYTQKSLSLSPG
Q: For B14, which Kd is on record?
A: 28.3 nM

B15: L-Yr-13&14-17 (Fc fusion)
chain: QVQLQESGGGLVQAGGSLRLSCAASRSIFSSYVMAWYRQAPGKERELVALIRYGGSTDYADSVKGRFTISRDNSKNTLILQMNSLKPEDTAMYYCAASKSAYIFDDRDYWGQGTQVTVSSTHTCPPCPAPEAAGGPSVFLFPPKPKDTLMISRTPEVTCVVVDVSHEDPEVKFNWYVDGVEVHNAKTKPREEQYNSTYRVVSVLTVLHQDWLNGKEYKCKVSNKALPAPIEKTISKAKGQPREPQVYTLPPSREEMTKNQVSLTCLVKGFYPSDIAVEWESNGQPENNYKTTPPVLDSDGSFFLYSKLTVDKSRWQQGNVFSCSVMHEALHNHYTQKSLSLSPG
Q: B15 was tested. Which Kd did it give?
A: 25.1 nM
